Laboratory results published in patent US20260201008A1, “SECRETIN-DERIVED GLP1R SELECTIVE AGONISTS” (GUBRA A/S, priority 2023, published 2026).
Square brackets hold non-standard residues; d marks the D form. Ends that are not written are not given here. Aib = CC(C)(N)C(=O)O

Key:
[1] = target: human GLP-1 receptor (hGLP1R) (human, UniProt P43220 24-463); test: cell-based or functional assay
[2] = target: human secretin receptor (hSCTR) (human, UniProt P47872 23-440); test: cell-based or functional assay
Sequence of human secretin receptor (hSCTR) (P47872 23-440): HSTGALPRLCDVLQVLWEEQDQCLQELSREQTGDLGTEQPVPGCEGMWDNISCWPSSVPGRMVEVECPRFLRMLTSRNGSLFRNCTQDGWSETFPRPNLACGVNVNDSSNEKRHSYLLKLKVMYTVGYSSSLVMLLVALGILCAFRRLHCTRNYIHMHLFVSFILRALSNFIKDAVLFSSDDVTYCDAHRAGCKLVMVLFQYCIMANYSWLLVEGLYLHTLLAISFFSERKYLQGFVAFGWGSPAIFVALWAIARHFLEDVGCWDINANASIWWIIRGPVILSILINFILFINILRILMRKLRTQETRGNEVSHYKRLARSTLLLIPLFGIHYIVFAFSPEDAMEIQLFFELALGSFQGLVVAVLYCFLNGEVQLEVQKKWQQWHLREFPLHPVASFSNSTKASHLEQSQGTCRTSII

pEC50 hGLPR1 [1]	pEC50 hSCTR [2]	Binder
8.2 -log M	5.3 -log M	H[Aib]EGTFTSDPSELLEGAALQRFIQWLV-NH2 (N-terminus assumed; SMILES CC[C@H](C)[C@H](NC(=O)[C@H](Cc1ccccc1)NC(=O)[C@H](CCCNC(=N)N)NC(=O)[C@H](CCC(N)=O)NC(=O)[C@H](CC(C)C)NC(=O)[C@H](C)NC(=O)[C@H](C)NC(=O)CNC(=O)[C@H](CCC(=O)O)NC(=O)[C@H](CC(C)C)NC(=O)[C@H](CC(C)C)NC(=O)[C@H](CCC(=O)O)NC(=O)[C@H](CO)NC(=O)[C@@H]1CCCN1C(=O)[C@H](CC(=O)O)NC(=O)[C@H](CO)NC(=O)[C@@H](NC(=O)[C@H](Cc1ccccc1)NC(=O)[C@@H](NC(=O)CNC(=O)[C@H](CCC(=O)O)NC(=O)C(C)(C)NC(=O)[C@@H](N)Cc1c[nH]cn1)[C@@H](C)O)[C@@H](C)O)C(=O)N[C@@H](CCC(N)=O)C(=O)N[C@@H](Cc1c[nH]c2ccccc12)C(=O)N[C@@H](CC(C)C)C(=O)N[C@H](C(N)=O)C(C)C) [SEQ ID NO: 122]
8.6 -log M	5.3 -log M	H[Aib]EGTFTSDPSRLLEGAALQRFIQWLV-NH2 (N-terminus assumed; SMILES CC[C@H](C)[C@H](NC(=O)[C@H](Cc1ccccc1)NC(=O)[C@H](CCCNC(=N)N)NC(=O)[C@H](CCC(N)=O)NC(=O)[C@H](CC(C)C)NC(=O)[C@H](C)NC(=O)[C@H](C)NC(=O)CNC(=O)[C@H](CCC(=O)O)NC(=O)[C@H](CC(C)C)NC(=O)[C@H](CC(C)C)NC(=O)[C@H](CCCNC(=N)N)NC(=O)[C@H](CO)NC(=O)[C@@H]1CCCN1C(=O)[C@H](CC(=O)O)NC(=O)[C@H](CO)NC(=O)[C@@H](NC(=O)[C@H](Cc1ccccc1)NC(=O)[C@@H](NC(=O)CNC(=O)[C@H](CCC(=O)O)NC(=O)C(C)(C)NC(=O)[C@@H](N)Cc1c[nH]cn1)[C@@H](C)O)[C@@H](C)O)C(=O)N[C@@H](CCC(N)=O)C(=O)N[C@@H](Cc1c[nH]c2ccccc12)C(=O)N[C@@H](CC(C)C)C(=O)N[C@H](C(N)=O)C(C)C) [SEQ ID NO: 124]
8.6 -log M	4.4 -log M	H[Aib]EGTFTSDPSYLKEEA[Aib]LQRFLEHLV-NH2 (not fully specified (residue 14)) [SEQ ID NO: 121]
8 -log M	5.2 -log M	H[Aib]EGTFTSDPSGLLEGAALQRFIQWLV-NH2 (N-terminus assumed; SMILES CC[C@H](C)[C@H](NC(=O)[C@H](Cc1ccccc1)NC(=O)[C@H](CCCNC(=N)N)NC(=O)[C@H](CCC(N)=O)NC(=O)[C@H](CC(C)C)NC(=O)[C@H](C)NC(=O)[C@H](C)NC(=O)CNC(=O)[C@H](CCC(=O)O)NC(=O)[C@H](CC(C)C)NC(=O)[C@H](CC(C)C)NC(=O)CNC(=O)[C@H](CO)NC(=O)[C@@H]1CCCN1C(=O)[C@H](CC(=O)O)NC(=O)[C@H](CO)NC(=O)[C@@H](NC(=O)[C@H](Cc1ccccc1)NC(=O)[C@@H](NC(=O)CNC(=O)[C@H](CCC(=O)O)NC(=O)C(C)(C)NC(=O)[C@@H](N)Cc1c[nH]cn1)[C@@H](C)O)[C@@H](C)O)C(=O)N[C@@H](CCC(N)=O)C(=O)N[C@@H](Cc1c[nH]c2ccccc12)C(=O)N[C@@H](CC(C)C)C(=O)N[C@H](C(N)=O)C(C)C) [SEQ ID NO: 123]
8.4 -log M	5 -log M	H[Aib]EGTFTSDPS[Aib]LLEGAALQRFIQWLV-NH2 (N-terminus assumed; SMILES CC[C@H](C)[C@H](NC(=O)[C@H](Cc1ccccc1)NC(=O)[C@H](CCCNC(=N)N)NC(=O)[C@H](CCC(N)=O)NC(=O)[C@H](CC(C)C)NC(=O)[C@H](C)NC(=O)[C@H](C)NC(=O)CNC(=O)[C@H](CCC(=O)O)NC(=O)[C@H](CC(C)C)NC(=O)[C@H](CC(C)C)NC(=O)C(C)(C)NC(=O)[C@H](CO)NC(=O)[C@@H]1CCCN1C(=O)[C@H](CC(=O)O)NC(=O)[C@H](CO)NC(=O)[C@@H](NC(=O)[C@H](Cc1ccccc1)NC(=O)[C@@H](NC(=O)CNC(=O)[C@H](CCC(=O)O)NC(=O)C(C)(C)NC(=O)[C@@H](N)Cc1c[nH]cn1)[C@@H](C)O)[C@@H](C)O)C(=O)N[C@@H](CCC(N)=O)C(=O)N[C@@H](Cc1c[nH]c2ccccc12)C(=O)N[C@@H](CC(C)C)C(=O)N[C@H](C(N)=O)C(C)C) [SEQ ID NO: 125]

Further lines, the binder ahead of its results:

Binder	pEC50 hGLPR1 [1]	pEC50 hSCTR [2]
H[Aib]EGTFTSDISVLLEGAALQRFIQWLV-NH2 (N-terminus assumed; SMILES CC[C@H](C)[C@H](NC(=O)[C@H](Cc1ccccc1)NC(=O)[C@H](CCCNC(=N)N)NC(=O)[C@H](CCC(N)=O)NC(=O)[C@H](CC(C)C)NC(=O)[C@H](C)NC(=O)[C@H](C)NC(=O)CNC(=O)[C@H](CCC(=O)O)NC(=O)[C@H](CC(C)C)NC(=O)[C@H](CC(C)C)NC(=O)[C@@H](NC(=O)[C@H](CO)NC(=O)[C@@H](NC(=O)[C@H](CC(=O)O)NC(=O)[C@H](CO)NC(=O)[C@@H](NC(=O)[C@H](Cc1ccccc1)NC(=O)[C@@H](NC(=O)CNC(=O)[C@H](CCC(=O)O)NC(=O)C(C)(C)NC(=O)[C@@H](N)Cc1c[nH]cn1)[C@@H](C)O)[C@@H](C)O)[C@@H](C)CC)C(C)C)C(=O)N[C@@H](CCC(N)=O)C(=O)N[C@@H](Cc1c[nH]c2ccccc12)C(=O)N[C@@H](CC(C)C)C(=O)N[C@H](C(N)=O)C(C)C) [SEQ ID NO: 116]	10.3 -log M	7.1 -log M
H[Aib]EGTFTSDISWLLEGAALQRFIQWLV-NH2 (N-terminus assumed; SMILES CC[C@H](C)[C@H](NC(=O)[C@H](Cc1ccccc1)NC(=O)[C@H](CCCNC(=N)N)NC(=O)[C@H](CCC(N)=O)NC(=O)[C@H](CC(C)C)NC(=O)[C@H](C)NC(=O)[C@H](C)NC(=O)CNC(=O)[C@H](CCC(=O)O)NC(=O)[C@H](CC(C)C)NC(=O)[C@H](CC(C)C)NC(=O)[C@H](Cc1c[nH]c2ccccc12)NC(=O)[C@H](CO)NC(=O)[C@@H](NC(=O)[C@H](CC(=O)O)NC(=O)[C@H](CO)NC(=O)[C@@H](NC(=O)[C@H](Cc1ccccc1)NC(=O)[C@@H](NC(=O)CNC(=O)[C@H](CCC(=O)O)NC(=O)C(C)(C)NC(=O)[C@@H](N)Cc1c[nH]cn1)[C@@H](C)O)[C@@H](C)O)[C@@H](C)CC)C(=O)N[C@@H](CCC(N)=O)C(=O)N[C@@H](Cc1c[nH]c2ccccc12)C(=O)N[C@@H](CC(C)C)C(=O)N[C@H](C(N)=O)C(C)C) [SEQ ID NO: 118]	10.2 -log M	7.1 -log M
H[Aib]EGTFTSDISFLLEGAALQRFIQWLV-NH2 (N-terminus assumed; SMILES CC[C@H](C)[C@H](NC(=O)[C@H](Cc1ccccc1)NC(=O)[C@H](CCCNC(=N)N)NC(=O)[C@H](CCC(N)=O)NC(=O)[C@H](CC(C)C)NC(=O)[C@H](C)NC(=O)[C@H](C)NC(=O)CNC(=O)[C@H](CCC(=O)O)NC(=O)[C@H](CC(C)C)NC(=O)[C@H](CC(C)C)NC(=O)[C@H](Cc1ccccc1)NC(=O)[C@H](CO)NC(=O)[C@@H](NC(=O)[C@H](CC(=O)O)NC(=O)[C@H](CO)NC(=O)[C@@H](NC(=O)[C@H](Cc1ccccc1)NC(=O)[C@@H](NC(=O)CNC(=O)[C@H](CCC(=O)O)NC(=O)C(C)(C)NC(=O)[C@@H](N)Cc1c[nH]cn1)[C@@H](C)O)[C@@H](C)O)[C@@H](C)CC)C(=O)N[C@@H](CCC(N)=O)C(=O)N[C@@H](Cc1c[nH]c2ccccc12)C(=O)N[C@@H](CC(C)C)C(=O)N[C@H](C(N)=O)C(C)C) [SEQ ID NO: 117]	11 -log M	6.7 -log M
H[Aib]EGTFTSDVSFLKE[Aib]AATQRFLEHLV-NH2 (not fully specified (residue 14)) [SEQ ID NO: 13]	10.5 -log M	6.5 -log M
H[Aib]EGTFTSDISGLLEGAALQRFIQWLV-NH2 (N-terminus assumed; SMILES CC[C@H](C)[C@H](NC(=O)[C@H](CC(=O)O)NC(=O)[C@H](CO)NC(=O)[C@@H](NC(=O)[C@H](Cc1ccccc1)NC(=O)[C@@H](NC(=O)CNC(=O)[C@H](CCC(=O)O)NC(=O)C(C)(C)NC(=O)[C@@H](N)Cc1c[nH]cn1)[C@@H](C)O)[C@@H](C)O)C(=O)N[C@@H](CO)C(=O)NCC(=O)N[C@@H](CC(C)C)C(=O)N[C@@H](CC(C)C)C(=O)N[C@@H](CCC(=O)O)C(=O)NCC(=O)N[C@@H](C)C(=O)N[C@@H](C)C(=O)N[C@@H](CC(C)C)C(=O)N[C@@H](CCC(N)=O)C(=O)N[C@@H](CCCNC(=N)N)C(=O)N[C@@H](Cc1ccccc1)C(=O)N[C@H](C(=O)N[C@@H](CCC(N)=O)C(=O)N[C@@H](Cc1c[nH]c2ccccc12)C(=O)N[C@@H](CC(C)C)C(=O)N[C@H](C(N)=O)C(C)C)[C@@H](C)CC) [SEQ ID NO: 120]	10.3 -log M	6.7 -log M
H[Aib]EGTFTSDISELLEGAALQRFIQWLV-NH2 (N-terminus assumed; SMILES CC[C@H](C)[C@H](NC(=O)[C@H](Cc1ccccc1)NC(=O)[C@H](CCCNC(=N)N)NC(=O)[C@H](CCC(N)=O)NC(=O)[C@H](CC(C)C)NC(=O)[C@H](C)NC(=O)[C@H](C)NC(=O)CNC(=O)[C@H](CCC(=O)O)NC(=O)[C@H](CC(C)C)NC(=O)[C@H](CC(C)C)NC(=O)[C@H](CCC(=O)O)NC(=O)[C@H](CO)NC(=O)[C@@H](NC(=O)[C@H](CC(=O)O)NC(=O)[C@H](CO)NC(=O)[C@@H](NC(=O)[C@H](Cc1ccccc1)NC(=O)[C@@H](NC(=O)CNC(=O)[C@H](CCC(=O)O)NC(=O)C(C)(C)NC(=O)[C@@H](N)Cc1c[nH]cn1)[C@@H](C)O)[C@@H](C)O)[C@@H](C)CC)C(=O)N[C@@H](CCC(N)=O)C(=O)N[C@@H](Cc1c[nH]c2ccccc12)C(=O)N[C@@H](CC(C)C)C(=O)N[C@H](C(N)=O)C(C)C) [SEQ ID NO: 119]	10.6 -log M	7.3 -log M
